In patent publication US20110159025:

Experiments:
HIV-2 capsid (CA) = HIV-2 capsid (CA) (UniProt P04590)
[1] = target: HIV-1 capsid mutant G89V (pLaiΔEnv-GFP3 G89V) (UniProt P03348)
[2] = tested on: HIV-1 capsid (CA), wild type, newly synthesized from HIVGFP (NL4-3 derived)

cyclophilin A (CypA)
infection and activation of MDDC (HIV-2 capsid (CA)): has the potential to infect and activate MDDC in a CypA-dependent manner
CD86 expression in infected MDDC [1]: resulted in substantially reduced CD86 expression at similar levels of infection
CD86 expression in MDDC infected with HIVGFP(G)+SIVVLP(G), Cyclosporin A added at different times [2]: Up to 24 h, Cyclosporin A (CsA) reduces CD86 expression
CD86 up-regulation in MDDC after shRNA knockdown of CypA [2]: prevented CD86 up-regulation following infection with HIV-1 (HDVIRESRFP(G), encoding the reporter RFP), but not following treatment with LPS
MDDC activation (CD86 up-regulation) under Cyclosporin A [2]: prevented MDDC activation following infection with HIVGFP(G) and SIVVLP(G), but not following treatment with LPS
